This is an account of results in US20190367612A1 (Daiichi Sankyo, published 2019).

Assay [1] deals with T1, human GPRC5D (human, UniProt Q9NZD1 1-345).
T1 construct: whole, on cells; also called hGPRC5D; G-protein coupled receptor family C group 5 member D
Briefly: flow cytometry on KHM-1B cells (human GPRC5D), PE anti-human IgG Fc detection, rMFI = MFI minus isotype control. As for the experimental part:
Human multiple myeloma cell line KHM-1B cells expressing GPRC5D were adjusted to a concentration of 2×10⁶ cells/mL with PBS containing 5% FBS, inoculated in an amount of 100 μL/well to a 96-well U-bottomed microplate, and centrifuged to remove the supernatant. The culture supernatant of each human anti-GPRC5D antibody (full-length IgG form containing C2037, C3048, C3015, or C3022) obtained in Example 10)-5 or Human IgG isotype control antibody (Calbiochem/Merck Millipore Corp.) adjusted to 14 ng/mL to 30 μg/mL was added thereto in an amount of 100 μL/well, and the plate was left standing at 4° C. for 1 hour. The cells were washed twice with PBS containing 5% FBS. Then, R-Phycoerythrin AffiniPure F(ab′)2 Fragment Goat Anti-Human IgG, Fcγ Fragment Specific (Jackson ImmunoResearch Laboratories, Inc.) diluted 100-fold with PBS containing 5% FBS was added thereto in an amount of 100 μL/well, and the plate was left standing at 4° C. for 1 hour. The cells were washed twice with PBS containing 5% FBS and then resuspended in PBS containing 5% FBS, followed by detection using a flow cytometer (FACSCanto™ II; Becton, Dickinson and Company). The data was analyzed using Flowjo (Tree Star, Inc.). The PE fluorescence intensity of the cell fraction was plotted to a histogram, and the mean fluorescence intensity (MFI) was calculated. The MFI value of the control antibody was subtracted from the MFI value of the GPRC5D antibody to calculate a relative value of MFI (rMFI).
Background: Flow cytometry measures light scatter and fluorescence of single cells or particles in a stream.

Assay [2] concerns the target T2, human GPRC5D amino-terminal peptide MYKDCIESTGDYFLLCDAEGPWGIILE-K(Biotin)-NH2, having an intramolecular … (human, C-terminal lysine carrying biotin, C-terminal amide; intramolecularly formed disulfide bond).
T2 construct: Peptide Institute synthetic peptide; also called amino-terminal peptide of biotinylated human GPRC5D (disulfide bond present)
T2 peptide: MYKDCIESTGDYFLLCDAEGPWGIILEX
Briefly: ELISA, chemiluminescence: biotinylated amino-terminal peptide of human GPRC5D on NeutrAvidin, culture supernatant of IgG-expressing cells (one concentration, not given), HRP anti-human Fab detection. The procedure:
(§1) NeutrAvidin diluted to 1 μg/mL with PBS was added in an amount of 50 μL/well to 96-well Maxi-sorp plate, and the plate was left standing overnight at 4° C. for immobilization. After washing three times with an ELISA buffer, the amino-terminal peptide of the biotinylated human or cynomolgus monkey GPRC5D (used in Example 10)-1) diluted to 1 μg/mL with PBS was added thereto, and the plate was shaken at room temperature for 1 hour. After washing three times with an ELISA buffer, the plate was blocked with Blocker Casein and washed three times with an ELISA buffer. Then, the culture solution of the IgG-expressing FreeStyle 293F cells was added to the plate and reacted at room temperature for 2 hours. After washing three times with an ELISA buffer, a horseradish peroxidase (HRP)-labeled anti-human Fab antibody (Jackson ImmunoResearch Laboratories, Inc.) diluted 2500-fold with ELISA buffer was added thereto in an amount of 50 μL/well and reacted at room temperature for 1 hour. After washing five times with an ELISA buffer, SuperSignal Pico ELISA Chemiluminescent substrate was added. After 10 minutes, the chemiluminescence was measured using a plate reader.
A general note: ELISA stands for enzyme-linked immunosorbent assay.

The target in assay [3] is T3, amino-terminal peptide of cynomolgus monkey GPRC5D …(Biotin)-NH2 (cynomolgus monkey, C-terminal lysine carrying biotin, C-terminal amide).
T3 construct: also called amino-terminal peptide of biotinylated cynomolgus monkey GPRC5D
T3 peptide: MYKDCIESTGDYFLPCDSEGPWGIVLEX
Briefly: ELISA, chemiluminescence: biotinylated amino-terminal peptide of cynomolgus monkey GPRC5D on NeutrAvidin, culture supernatant of IgG-expressing cells (one concentration, not given), HRP anti-human Fab detection. The procedure:
as §1

A further assay addresses T4, mouse GPRC5D (mouse, UniProt Q9JIL6 1-344).
T4 construct: whole, on cells
T4 sequence (looked up): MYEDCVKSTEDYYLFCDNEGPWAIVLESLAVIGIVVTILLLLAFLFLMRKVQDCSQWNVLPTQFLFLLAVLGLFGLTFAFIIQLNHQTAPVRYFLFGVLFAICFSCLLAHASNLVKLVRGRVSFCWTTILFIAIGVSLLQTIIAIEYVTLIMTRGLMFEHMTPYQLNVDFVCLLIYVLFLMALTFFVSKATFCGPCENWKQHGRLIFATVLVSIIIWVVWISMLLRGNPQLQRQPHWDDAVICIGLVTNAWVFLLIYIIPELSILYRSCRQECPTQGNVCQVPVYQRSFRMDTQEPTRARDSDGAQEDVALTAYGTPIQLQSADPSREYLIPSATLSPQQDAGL
Briefly: flow cytometry, in the same way as in Example 5)-2.

Assay [4] has as its target T1, human GPRC5D. Briefly: flow cytometry on KMS-34 cells (endogenous human GPRC5D), anti-FLAG antibody and Alexa 488 anti-mouse IgG detection. As for the experimental part:
The KMS-34 cells were recovered by centrifugation, washed twice with a FACS buffer (PBS containing 0.5% BSA and 2 mM EDTA, pH 7.4), and then suspended in the same solution as above. The C2037, C3048, C3015 or C3022 scFv was added to the obtained cell suspension, and the mixture was left standing at 4° C. for 2 hours. After washing twice with a FACS buffer, the cells were suspended by the addition of an anti-FLAG antibody (Sigma-Aldrich Corp.), and the mixture was further left standing at 4° C. for 1 hour. After washing twice with a FACS buffer, the cells were suspended by the addition of Alexa 488-labeled anti-mouse IgG antibody (Jackson ImmunoResearch Laboratories, Inc.), and the mixture was further left standing at 4° C. for 1 hour. After washing twice with a FACS buffer, the cells were fixed in 1% PFA (prepared from a 32% paraformaldehyde solution (Electron Microscopy Sciences)), followed by detection using a flow cytometer (FACSCanto™ II; Becton, Dickinson and Company). The data was analyzed using Flowjo (Tree Star, Inc.).

For assay [5], the target named is T2, human GPRC5D amino-terminal peptide …. Briefly: SPR (Biacore T200), kinetic analysis: biotinylated amino-terminal peptide of human GPRC5D on Sensor Chip CAP, scFv as analyte. As for the experimental part:
The binding activity of the anti-GPRC5D antibodies against the amino-terminal peptide of human GPRC5D was tested by SPR using Biacore T200. The amino-terminal peptide of biotinylated human GPRC5D diluted to 2 nM with HBS-EP+ (manufactured by GE Healthcare Bio-Sciences Corp.) was immobilized on Sensor Chip CAP (manufactured by GE Healthcare Bio-Sciences Corp.) by contact at a rate of 10 μL/min for 180 seconds. Then, Kd was calculated by kinetic analysis using a plurality of concentrations of each scFv diluted with HBS-EP+ as analytes.
Background: In SPR one partner is held on a chip, and binding of the other changes the refractive index at the surface.

The target in assay [6] is T3, amino-terminal peptide of cynomolgus …. Briefly: ELISA, chemiluminescence: biotinylated amino-terminal peptide of cynomolgus monkey GPRC5D on NeutrAvidin, scFv detected with HRP anti-FLAG antibody. The procedure: NeutrAvidin diluted to 1 μg/mL with PBS was added in an amount of 50 μL/well to 96-well Maxi-sorp plate (Black, Nunc/Thermo Fisher Scientific Inc.), and the plate was left standing overnight at 4° C. for immobilization. After washing three times with an ELISA buffer, the amino-terminal peptide of the biotinylated human or cynomolgus monkey GPRC5D (used in Example 10)-1) diluted to 1 μg/mL with PBS was added thereto, and the plate was shaken at room temperature for 1 hour. After washing three times with an ELISA buffer, the plate was blocked with Blocker Casein and washed three times with an ELISA buffer. Then, the C2037, C3048, C3015, or C3022 scFv was added to the plate and reacted at room temperature for 2 hours. After washing three times with an ELISA buffer, a horseradish peroxidase (HRP)-labeled anti-FLAG antibody diluted 5000-fold with an ELISA buffer was added thereto in an amount of 50 μL/well and reacted at room temperature for 1 hour. After washing five times with an ELISA buffer, SuperSignal Pico ELISA Chemiluminescent substrate was added. After 10 minutes, the chemiluminescence was measured using a plate reader.

B1: IgG form of the human antibody C2037 (antibody, V domains shown)
VH: not shown
VL: QPVLTQPPSASGTPGQRVTISCSGSNSNIGSRTVNWYQHLPGTAPRLLIYGNNQWPSGVPDRFSGSKSGSSASLAISGLRSEDEADYYCAAWDDSLSGVVFGGGTKLTVLG
notes: Human IgG1; also called C2037 IgG form; full-length IgG form containing C2037
Consider B1, for which, in the assay with human GPRC5D [1], the “EC50 (read off the curve)” value was ~8 nM. The binding result in assay [2] and in assay [3] was “binds” in each case.

B2: IgG form of the human antibody C3022 (antibody, V domains shown)
VH: QVQLVQSGAEVKKPGASVKVSCKASGYTFTGYYMHWVRQAPGQGLEWMGRINPNSGGTNYAQKFQGRVTMTRDTSISTAYMELSGLRSDDTAVYYCASGSVRHPWGQGTLVTVSS
VL: QPVLTQPPSASGTPGQRVTISCSGSRSNIGGNIVSWYQQFPGTAPRLLTYADNQRPSGVPDRFSGSKSGTSASLAISGLQSEDEADYYCAAWDDSLNGVVFGGGTKLTVLG
notes: Human IgG1; also called C3022 IgG form; full-length IgG form containing C3022
On to B2, for which the binding result (in the assay with human GPRC5D [1]; in assay [2]; in assay [3]) was “binds” in each case.

B3: IgG form of the human antibody C3048 (antibody, V domains shown)
VH: QVQLVQSGAEVKKPGSSVKVSCKASGGTFSRYAISWVRQAPGQGLEWMGGIIPIFGTANYAQKFQGRVTITADQSTRTAYMDLGRLRSEDTAVYYCALEGFRDSLKRNPFDIWGQGTMVTVSS
VL: QSVVTQPPSVSAAPGQKVTISCSGGTTNIGSNYVSWYQQLPGTAPKFLMYENNKRPSGIPDRFSGSKSGTSATLAITGLQTGDEATYYCSTWDSSLNTGLFGGGTKLTVLG
notes: Human IgG1; also called C3048 IgG form; full-length IgG form containing C3048
As to B3, the “EC50 (read off the curve)” value with human GPRC5D [1] fell in the range of 7 to 8 nM. Besides, the binding result in assay [2] and in assay [3] was “binds” each time.

B4: human chimeric 7B4 (antibody, human IgG1, V domains shown)
VH: EIHLQESGPGLVKPSQSLSLTCSVTGYTITSGYDWSWIRKFPGNKMEWMAYMSYRGSTNYNPSLKSRISITRDTSKNQFFLQLNSVTTEDTATYYCALTRTYWYNYYYVLDAWGQGASVTVSS
VL: DIQMTQSPSFLSASVGERVTLSCKASQNINKYLDWYQQKLGEPPKLLIYNTNNLHTGIPSRFSGSGSGTDYTLTISGLQPEDVATYFCLQRNSWYTFGAGTKLELKR
notes: Human IgG1 / kappa constant regions
Consider B4, for which, in the assay with mouse GPRC5D, the binding result was “no binding”.

B5: human chimeric 2A4 (antibody, human IgG1, V domains shown)
VH: QVQLQQSGAELAKPGTSVKLSCKASGYTFTSYYIYWVKQRPGQGLEWIGYVYPGYGGTYYSDKFKGKATFTADTSSSTAYMLLGSLTPEDSAYYFCARRKGIIRGPGYFDYWGQGVMVTVSS
VL: DIQMTQSPASLSASLGETVSIECLASEGISNSLAWYQQKPGKSPQLLIYGASSLQDGVPSRFSGSGSGTQYSLKISGMQPEDEGLYYCQQGYKYPPTFGGGTKLELKR
notes: as for B4
As for B5, the binding result with mouse GPRC5D is given as “no binding”.

B6: human antibody C3022 scFv (scFv)
scFv: QVQLVQSGAEVKKPGASVKVSCKASGYTFTGYYMHWVRQAPGQGLEWMGRINPNSGGTNYAQKFQGRVTMTRDTSISTAYMELSGLRSDDTAVYYCASGSVRHPWGQGTLVTVSSGGGGSGGGGSGGGGSQPVLTQPPSASGTPGQRVTISCSGSRSNIGGNIVSWYQQFPGTAPRLLTYADNQRPSGVPDRFSGSKSGTSASLAISGLQSEDEADYYCAAWDDSLNGVVFGGGTKLTVL
notes: also called C3022 antibody scFv; not shown: FLAG and His tags at the carboxyl terminus
As to B6, the binding result (with human GPRC5D [4]; in assay [6]) was “binds” throughout. This molecule also gave a dissociation constant Kd in assay [5] of 95 nM.

One may read the EC50 (read off the curve) as the concentration giving half of the maximal effect. As a reminder, the Kd is the constant that tells how readily two partners part at equilibrium.
